Experimental data reported in the supplement of paper PMC5998384.

Experiments:
[1] = tested on: HeLa Kyoto; experiment: melting temperature (median over replicates), in situ; higher = more thermally stable
[2] = tested on: HeLa Kyoto; experiment: solubility change mitosis vs G1/S (difference of NP-40 vs SDS log2 ratios) (log2 ratio difference); higher = more soluble in mitosis
[3] = tested on: HeLa Kyoto; experiment: thermal stability score vs G1/S (z-score of summed log2 fold changes over temperatures); higher = more thermally stable than in G1/S
[4] = tested on: HeLa Kyoto; experiment: solubility in G1/S (NP-40 vs SDS abundance) (log2 ratio); higher = more soluble; details: cell cycle stage: G1/S
[5] = cell cycle stage: early G1 (4.5 h after nocodazole release)
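Throughout, for melting temperature (median over replicates), in situ: HeLa Kyoto cells synchronized by double thymidine or nocodazole block, proteins quantified by TMT10plex mass spectrometry, three independent biological replicates.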
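Throughout, for solubility change mitosis vs G1/S (difference of NP-40 vs SDS log2 ratios): synchronized HeLa Kyoto cells (double thymidine block for G1/S, nocodazole release for mitosis), protein amounts in NP-40 versus SDS lysates quantified by mass spectrometry, three biological replicates.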
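Throughout, for solubility in G1/S (NP-40 vs SDS abundance): HeLa Kyoto cells arrested at G1/S by double thymidine block, proteins quantified by TMT10plex mass spectrometry in mild NP-40 versus SDS extracts, three biological replicates.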
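Throughout, for thermal stability score vs G1/S (z-score of summed log2 fold changes over temperatures): synchronized HeLa Kyoto cells, proteins quantified by TMT10plex mass spectrometry, three biological replicates, mitosis taken 0.5 h after nocodazole release, G1/S directly after double thymidine block.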

| Sequence | melting temperature ([1]; cell cycle stage: G1/S) | melting temperature ([1]; cell cycle stage: mitosis) | solubility change mitosis (log2) [2] | thermal stability score [3, 5] | thermal stability score ([3]; cell cycle stage: mitosis) | solubility in G1/S (log2) [4] |
| --- | --- | --- | --- | --- | --- | --- |
| MAASWRLGCDPRLLRYLVGFPGRRSVGLVKGALGWSVSRGANWRWFHSTQWLRGDPIKILMPSLSPTMEEGNIVKWLKKEGEAVSAGDALCEIETDKAVVTLDASDDGILAKIVVEEGSKNIRLGSLIGLIVEEGEDWKHVEIPKDVGPPPPVSKPSEPRPSPEPQISIPVKKEHIPGTLRFRLSPAARNILEKHSLDASQGTATGPRGIFTKEDALKLVQLKQTGKITESRPTPAPTATPTAPSPLQATAGPSYPRPVIPPVSTPGQPNAVGTFTEIPASNIRRVIAKRLTESKSTVPHAYATADCDLGAVLKVRQDLVKDDIKVSVNDFIIKAAAVTLKQMPDVNVSWDGEGPKQLPFIDISVAVATDKGLLTPIIKDAAAKGIQEIADSVKALSKKARDGKLLPEEYQGGSFSISNLGMFGIDEFTAVINPPQACILAVGRFRPVLKLTEDEEGNAKLQQRQLITVTMSSDSRVVDDELATRFLKSFKANLENPIRLA [PDHX] | 53.5 °C | 52.9 °C | -0.00638 | -1.5 | -1.54 | 0.248 |
| MAATELRGVVGPGPAAIAALGGGGAGPPVVGGGGGRGDAGPGSGAASGTVVAAAAGGPGPGAGGVAAAGPAPAPPTGGSGGSGAGGSGSAREGWLFKWTNYIKGYQRRWFVLSNGLLSYYRSKAEMRHTCRGTINLATANITVEDSCNFIISNGGAQTYHLKASSEVERQRWVTALELAKAKAVKMLAESDESGDEESVSQTDKTELQNTLRTLSSKVEDLSTCNDLIAKHGTALQRSLSELESLKLPAESNEKIKQVNERATLFRITSNAMINACRDFLMLAQTHSKKWQKSLQYERDQRIRLEETLEQLAKQHNHLERAFRGATVLPANTPGNVGSGKDQCCSGKGDMSDEDDENEFFDAPEIITMPENLGHKRTGSNISGASSDISLDEQYKHQLEETKKEKRTRIPYKPNYSLNLWSIMKNCIGKELSKIPMPVNFNEPLSMLQRLTEDLEYHELLDRAAKCENSLEQLCYVAAFTVSSYSTTVFRTSKPFNPLLGETFELDRLEENGYRSLCEQVSHHPPAAAHHAESKNGWTLRQEIKITSKFRGKYLSIMPLGTIHCIFHATGHHYTWKKVTTTVHNIIVGKLWIDQSGEIDIVNHKTGDKCNLKFVPYSYFSRDVARKVTGEVTDPSGKVHFALLGTWDEKMECFKVQPVIGENGGDARQRGHEAEESRVMLWKRNPLPKNAENMYYFSELALTLNAWESGTAPTDSRLRPDQRLMENGRWDEANAEKQRLEEKQRLSRKKREAEAMKATEDGTPYDPYKALWFERKKDPVTKELTHIYRGEYWECKEKQDWSSCPDIF [OSBP] | 52.1 °C | 51.9 °C | -0.212 | -1.23 | -0.683 | -0.0183 |
| MAATLGPLGSWQQWRRCLSARDGSRMLLLLLLLGSGQGPQQVGAGQTFEYLKREHSLSKPYQGVGTGSSSLWNLMGNAMVMTQYIRLTPDMQSKQGALWNRVPCFLRDWELQVHFKIHGQGKKNLHGDGLAIWYTKDRMQPGPVFGNMDKFVGLGVFVDTYPNEEKQQERVFPYISAMVNNGSLSYDHERDGRPTELGGCTAIVRNLHYDTFLVIRYVKRHLTIMMDIDGKHEWRDCIEVPGVRLPRGYYFGTSSITGDLSDNHDVISLKLFELTVERTPEEEKLHRDVFLPSVDNMKLPEMTAPLPPLSGLALFLIVFFSLVFSVFAIVIGIILYNKWQEQSRKRFY [LMAN2L] | 53.7 °C | 54.1 °C | -0.146 | -0.409 | -1.27 | -0.0714 |
| MAAVAAVAARRRRSWASLVLAFLGVCLGITLAVDRSNFKTCEESSFCKRQRSIRPGLSPYRALLDSLQLGPDSLTVHLIHEVTKVLLVLELQGLQKNMTRFRIDELEPRRPRYRVPDVLVADPPIARLSVSGRDENSVELTMAEGPYKIILTARPFRLDLLEDRSLLLSVNARGLLEFEHQRAPRVSQGSKDPAEGDGAQPEETPRDGDKPEETQGKAEKDEPGAWEETFKTHSDSKPYGPMSVGLDFSLPGMEHVYGIPEHADNLRLKVTEGGEPYRLYNLDVFQYELYNPMALYGSVPVLLAHNPHRDLGIFWLNAAETWVDISSNTAGKTLFGKMMDYLQGSGETPQTDVRWMSETGIIDVFLLLGPSISDVFRQYASLTGTQALPPLFSLGYHQSRWNYRDEADVLEVDQGFDDHNLPCDVIWLDIEHADGKRYFTWDPSRFPQPRTMLERLASKRRKLVAIVDPHIKVDSGYRVHEELRNLGLYVKTRDGSDYEGWCWPGSAGYPDFTNPTMRAWWANMFSYDNYEGSAPNLFVWNDMNEPSVFNGPEVTMLKDAQHYGGWEHRDVHNIYGLYVHMATADGLRQRSGGMERPFVLARAFFAGSQRFGAVWTGDNTAEWDHLKISIPMCLSLGLVGLSFCGADVGGFFKNPEPELLVRWYQMGAYQPFFRAHAHLDTGRREPWLLPSQHNDIIRDALGQRYSLLPFWYTLLYQAHREGIPVMRPLWVQYPQDVTTFNIDDQYLLGDALLVHPVSDSGAHGVQVYLPGQGEVWYDIQSYQKHHGPQTLYLPVTLSSIPVFQRGGTIVPRWMRVRRSSECMKDDPITLFVALSPQGTAQGELFLDDGHTFNYQTRQEFLLRRFSFSGNTLVSSSADPEGHFETPIWIERVVIIGAGKPAAVVLQTKGSPESRLSFQHDPETSVLVLRKPGINVASDWSIHLR [GANAB] | 53.6 °C | 54.2 °C | -0.155 | 3.69 | 5.36 | -0.0187 |
| MAAVAGSGAAAAPSSLLLVVGSEFGSPGLLTYVLEELERGIRSWDVDPGVCNLDEQLKVFVSRHSATFSSIVKGQRSLHHRGDNLETLVLLNPSDKSLYDELRNLLLDPASHKLLVLAGPCLEETGELLLQTGGFSPHHFLQVLKDREIRDILATTPPPVQPPILTITCPTFGDWAQLAPAVPGLQGALRLQLRLNPPAQLPNSEGLCEFLEYVAESLEPPSPFELLEPPTSGGFLRLGRPCCYIFPGGLGDAAFFAVNGFTVLVNGGSNPKSSFWKLVRHLDRVDAVLVTHPGADSLPGLNSLLRRKLAERSEVAAGGGSWDDRLRRLISPNLGVVFFNACEAASRLARGEDEAELALSLLAQLGITPLPLSRGPVPAKPTVLFEKMGVGRLDMYVLHPPSAGAERTLASVCALLVWHPAGPGEKVVRVLFPGCTPPACLLDGLVRLQHLRFLREPVVTPQDLEGPGRAESKESVGSRDSSKREGLLATHPRPGQERPGVARKEPARAEAPRKTEKEAKTPRELKKDPKPSVSRTQPREVRRAASSVPNLKKTNAQAAPKPRKAPSTSHSGFPPVANGPRSPPSLRCGEASPPSAACGSPASQLVATPSLELGPIPAGEEKALELPLAASSIPRPRTPSPESHRSPAEGSERLSLSPLRGGEAGPDASPTVTTPTVTTPSLPAEVGSPHSTEVDESLSVSFEQVLPPSAPTSEAGLSLPLRGPRARRSASPHDVDLCLVSPCEFEHRKAVPMAPAPASPGSSNDSSARSQERAGGLGAEETPPTSVSESLPTLSDSDPVPLAPGAADSDEDTEGFGVPRHDPLPDPLKVPPPLPDPSSICMVDPEMLPPKTARQTENVSRTRKPLARPNSRAAAPKATPVAAAKTKGLAGGDRASRPLSARSEPSEKGGRAPLSRKSSTPKTATRGPSGSASSRPGVSATPPKSPVYLDLAYLPSGSSAHLVDEEFFQRVRALCYVISGQDQRKEEGMRAVLDALLASKQHWDRDLQVTLIPTFDSVAMHTWYAETHARHQALGITVLGSNSMVSMQDDAFPACKVEF [MAP1S] | 50.4 °C | 49.8 °C | -0.216 | -0.227 | -0.265 | 0.287 |
| MAAVDIRDNLLGISWVDSSWIPILNSGSVLDYFSERSNPFYDRTCNNEVVKMQRLTLEHLNQMVGIEYILLHAQEPILFIIRKQQRQSPAQVIPLADYYIIAGVIYQAPDLGSVINSRVLTAVHGIQSAFDEAMSYCRYHPSKGYWWHFKDHEEQDKVRPKAKRKEEPSSIFQRQRVDALLLDLRQKFPPKFVQLKPGEKPVPVDQTKKEAEPIPETVKPEEKETTKNVQQTVSAKGPPEKRMRLQ [MED6] | 47.9 °C | 50 °C | 0.222 | -0.569 | -0.431 | 0.404 |
| MAAVLNAERLEVSVDGLTLSPDPEERPGAEGAPLLPPPLPPPSPPGSGRGPGASGEQPEPGEAAAGGAAEEARRLEQRWGFGLEELYGLALRFFKEKDGKAFHPTYEEKLKLVALHKQVLMGPYNPDTCPEVGFFDVLGNDRRREWAALGNMSKEDAMVEFVKLLNRCCHLFSTYVASHKIEKEEQEKKRKEEEERRRREEEERERLQKEEEKRRREEEERLRREEEERRRIEEERLRLEQQKQQIMAALNSQTAVQFQQYAAQQYPGNYEQQQILIRQLQEQHYQQYMQQLYQVQLAQQQAALQKQQEVVVAGSSLPTSSKVNATVPSNMMSVNGQAKTHTDSSEKELEPEAAEEALENGPKESLPVIAAPSMWTRPQIKDFKEKIQQDADSVITVGRGEVVTVRVPTHEEGSYLFWEFATDNYDIGFGVYFEWTDSPNTAVSVHVSESSDDDEEEEENIGCEEKAKKNANKPLLDEIVPVYRRDCHEEVYAGSHQYPGRGVYLLKFDNSYSLWRSKSVYYRVYYTR [ACBD3] | 50.4 °C | 50.2 °C | -0.137 | -1.26 | -0.756 | -0.138 |
